Data as given in PMC5825156.

Target: SIMx4 probe (fragment of Ring Finger Protein 4 comprising four SIMs) (Rattus norvegicus) (UniProt O88846)
Test: pull-down; lysate of E. coli expressing HA-TbSUMO chains or monomer incubated with His-tagged SIMx4 or mutSIMx4 probe, 50 mM Tris HCl pH 7.6, 150 mM NaCl, 1% NP40, 0.5% deoxycholate, 1.5 h at 4°C; captured on Ni^+2-resin, washed with 250 mM NaCl, eluted with imidazole; Western blot anti-HA, three replicates

Chain of UniProt O88846 (O88846 32-132): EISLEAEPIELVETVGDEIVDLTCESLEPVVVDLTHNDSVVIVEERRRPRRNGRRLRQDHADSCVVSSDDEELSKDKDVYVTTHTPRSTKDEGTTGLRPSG

HA-TbSUMO chains (poly-SUMO chains of Trypanosoma brucei SUMO made by in bacteria SUMOylation)
fold pulled down against the mutSIMx4 probe or beads alone: > 3 fold
